{"source": "patent US20140377774", "proteins": {"B1": {"name": "human PASK (protein)", "chain": "MEDGGLTAFEEDQRCLSQSLPLPVSAEGPAAQTTAEPSRSFSSAHRHLSRRNGLSRLCQSRTALSEDRWSSYCLSSLAAQNICTSKLHCPAAPEHTDPSEPRGSVSCCSLLRGLSSGWSSPLLPAPVCNPNKAIFTVDAKTTEILVANDKACGLLGYSSQDLIGQKLTQFFLRSDSDVVEALSEEHMEADGHAAVVFGTVVDIISRSGEKIPVSVWMKRMRQERRLCCVVVLEPVERVSTWVAFQSDGTVTSCDSLFAHLHGYVSGEDVAGQHITDLIPSVQLPPSGQHIPKNLKIQRSVGRARDGTTFPLSLKLKSQPSSEEATTGEAAPVSGYRASVWVFCTISGLITLLPDGTIHGINHSFALTLFGYGKTELLGKNITFLIPGFYSYMDLAYNSSLQLPDLASCLDVGNESGCGERTLDPWQGQDPAEGGQDPRINVVLAGGHVVPRDEIRKLMESQDIFTGTQTELIAGGQLLSCLSPQPAPGVDNVPEGSLPVHGEQALPKDQQITALGREEPVAIESPGQDLLGESRSEPVDVKPFASCEDSEAPVPAEDGGSDAGMCGLCQKAQLERMGVSGPSGSDLWAGAAVAKPQAKGQLAGGSLLMHCPCYGSEWGLWWRSQDLAPSPSGMAGLSFGTPTLDEPWLGVENDREELQTCLIKEQLSQLSLAGALDVPHAELVPTECQAVTAPVSSCDLGGRDLCGGCTGSSSACYALATDLPGGLEAVEAQEVDVNSFSWNLKELFFSDQTDQTSSNCSCATSELRETPSSLAVGSDPDVGSLQEQGSCVLDDRELLLLTGTCVDLGQGRRFRESCVGHDPTEPLEVCLVSSEHYAASDRESPGHVPSTLDAGPEDTCPSAEEPRLNVQVTSTPVIVMRGAAGLQREIQEGAYSGSCYHRDGLRLSIQFEVRRVELQGPTPLFCCWLVKDLLHSQRDSAARTRLFLASLPGSTHSTAAELTGPSLVEVLRARPWFEEPPKAVELEGLAACEGEYSQKYSTMSPLGSGAFGFVWTAVDKEKNKEVVVKFIKKEKVLEDCWIEDPKLGKVTLEIAILSRVEHANIIKVLDIFENQGFFQLVMEKHGSGLDLFAFIDRHPRLDEPLASYIFRQLVSAVGYLRLKDIIHRDIKDENIVIAEDFTIKLIDFGSAAYLERGKLFYTFCGTIEYCAPEVLMGNPYRGPELEMWSLGVTLYTLVFEENPFCELEETVEAAIHPPYLVSKELMSLVSGLLQPVPERRTTLEKLVTDPWVTQPVNLADYTWEEVFRVNKPESGVLSAASLEMGNRSLSDVAQAQELCGGPVPGEAPNGQGCLHPGDPRLLTS"}}, "target": "T1, wild-type yeast Ugp1", "T1 chain": "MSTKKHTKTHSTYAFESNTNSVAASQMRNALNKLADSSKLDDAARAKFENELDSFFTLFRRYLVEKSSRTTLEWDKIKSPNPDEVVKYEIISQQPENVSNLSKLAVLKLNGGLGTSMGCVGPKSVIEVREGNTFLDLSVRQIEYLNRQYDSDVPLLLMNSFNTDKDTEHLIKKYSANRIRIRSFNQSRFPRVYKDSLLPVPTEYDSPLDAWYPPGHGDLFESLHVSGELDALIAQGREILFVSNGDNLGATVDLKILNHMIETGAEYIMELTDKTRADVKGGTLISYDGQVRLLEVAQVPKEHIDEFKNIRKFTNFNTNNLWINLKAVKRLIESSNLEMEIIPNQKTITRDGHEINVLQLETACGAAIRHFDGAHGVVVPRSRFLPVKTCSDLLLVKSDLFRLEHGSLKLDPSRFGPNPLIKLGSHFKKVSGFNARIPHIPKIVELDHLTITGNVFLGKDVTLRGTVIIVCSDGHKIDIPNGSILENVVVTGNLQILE"}
{"protein": "B1", "values": [{"measurement": "Ugp1 phosphorylation (Western blot with phospho-specific Ugp1 antibody)", "result": "transfected with human PASK and wild-type yeast Ugp1 (to promote phosphorylation) (lane 1) ... the phospho-Ugp1 band in lane 1"}]}
